Experimental data: article PMC6215862, “AlNAC4 Transcription Factor From Halophyte Aeluropus lagopoides Mitigates Oxidative Stress by Maintaining ROS Homeostasis in Transgenic Tobacco”

Tests used:
AlNAC4 [1] = target: T1, AlNAC4 (Aeluropus lagopoides, UniProt A0A220T1T2 1-312); assay: EMSA; 15 mM HEPES, 35 mM KCl, 1 mM EDTA pH 8.0, 1 mM DTT, 1 mM MgCl2, 6% glycerol, 4 ug glycogen, 25 ul, room temperature 20 min; 10% acrylamide 0.5x TBE gel, ethidium bromide stain; conditions: protein: recombinant; tags: 6xHis (pET-28a; not thrombin-cleaved); chain copies: 2; blunt
T1 sequence: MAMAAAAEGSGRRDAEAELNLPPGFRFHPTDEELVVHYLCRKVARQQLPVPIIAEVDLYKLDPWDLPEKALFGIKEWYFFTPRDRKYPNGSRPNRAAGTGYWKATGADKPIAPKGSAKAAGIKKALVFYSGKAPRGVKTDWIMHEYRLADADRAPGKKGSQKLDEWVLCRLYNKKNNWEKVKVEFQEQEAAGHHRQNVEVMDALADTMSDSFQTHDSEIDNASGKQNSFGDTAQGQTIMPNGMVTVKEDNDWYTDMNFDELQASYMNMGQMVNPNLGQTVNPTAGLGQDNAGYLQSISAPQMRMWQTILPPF

AlNAC4 [2] = target: T1, AlNAC4; assay: EMSA; 80 ng probe, 300-2400 ng protein; binding increases with protein; 15 mM HEPES, 35 mM KCl, 1 mM EDTA pH 8.0, 1 mM DTT, 1 mM MgCl2, 6% glycerol, 4 ug glycogen, 25 ul, room temperature 20 min; 10% acrylamide 0.5x TBE gel, ethidium bromide stain; conditions: protein: recombinant, tags: 6xHis (pET-28a; not thrombin-cleaved), chain copies: 2
AlNAC4 [3] = target: T1, AlNAC4; assay: EMSA; data not shown; 15 mM HEPES, 35 mM KCl, 1 mM EDTA pH 8.0, 1 mM DTT, 1 mM MgCl2, 6% glycerol, 4 ug glycogen, 25 ul, room temperature 20 min; 10% acrylamide 0.5x TBE gel, ethidium bromide stain; conditions: protein: recombinant; tags: 6xHis (pET-28a; not thrombin-cleaved); chain copies: 2; blunt

B1: pBSK+ MCS (dsDNA)
DNA 1: GGGGATCCACTAGTTCTAGAGCGGCCGCCA
DNA 2: TGGCGGCCGCTCTAGAACTAGTGGATCCCC
B1: no binding (AlNAC4 [1]).

B2: NACBS (single NACRS with flanks, erd1 promoter) (dsDNA)
DNA 1: AGCTTGTGCAACTTGAGCTCTTCTTCTGTAACACGCATGTGTTGCGTTTGGTTTTTAATTTATTTGCCA
DNA 2: TGGCAAATAAATTAAAAACCAAACGCAACACATGCGTGTTACAGAAGAAGAGCTCAAGTTGCACAAGCT
B2: binds (AlNAC4 [2]; blunt).

B3: mutated NACBS (CATGTG to AAAAAA, AACA to TTAA) (dsDNA)
DNA 1: AGCTTGTGCAACTTGAGCTCTTCTTCTGTTTAACGAAAAAATTGCGTTTGGTTTTTAATTTATTTGCCA
DNA 2: TGGCAAATAAATTAAAAACCAAACGCAATTTTTTCGTTAAACAGAAGAAGAGCTCAAGTTGCACAAGCT
B3: no binding (AlNAC4 [3]).

B4: NACBST (tandem NACRS, erd1 promoter) (dsDNA)
DNA 1: GGCCGCACACGCATGTGACACGCATGTGACACGCATGTGACACGCATGTGA
DNA 2: CTAGTCACATGCGTGTCACATGCGTGTCACATGCGTGTCACATGCGTGTGC
B4: binds (AlNAC4 [2]; 5' overhangs 4 nt on both strands (GGCC, CTAG)).
